B1: FK506-binding protein 4 (Saccharomyces cerevisiae), Q06205 (parent)
chain: MSDMLPLATYSLNVEPYSPTPALNFKIPVTIRITMAAIDPEPFDDDKKPSTLRIIKRNPELTRGEYYNQDNNDGLEEDESESEQEADVPKRSVKSKKGKAVEQSESEDSEDENEIDDEFEECVLLTLSPKGQYQQALDITIAPEEDVQFVVTGSYTISLTGNYVKHPFDNSSDSDEDEEDYYSDEESSNGEEEEEEEEEDDEELSSGDDDLDDLVDASDIESRLDELVKKDEKKKNNKKDSKRKHEEDEEESAKPAEKKQTTKKDKKAEKVKDSEESKPKPKTKLLEGGIIIEDRVTGKGPHAKKGTRVGMRYVGKLKNGKVFDKNTKGKPFVFKLGQGEVIKGWDIGVAGMAVGGERRIVIPAPYAYGKQALPGIPANSELTFDVKLVSMK

Variants of: B1
Conditions: with h3_yeast HHT1, P61830

| effect of a mutation on the interaction | Variant |
| --- | --- |
| disrupting interaction | F323A |

— IntAct's records for PubMed 16959570
